In patent US20250296975A1:

Biological target: His-tagged T-cell immunoreceptor with Ig and ITIM domains (TIGIT) (UniProt Q495A1)
Assay: biolayer interferometry, His-tagged TIGIT

B1: anti-TIGIT antibody TIG1 (antibody, from another filing, V domains shown)
VH: DVQLVESGGGLVQPGGSRKLSCAASGFTFSNFGMHWVRQAPEKGLEWVAFISSGSSSIYYADTVKGRFTISRDNPKNTLFLQMTSLRSEDTAMYYCARMRLDYYAMDYWGQGTSVTVSS
VL: DVQITQSPSYLAASPGETITINCRASKSISKYLAWYQEKPGKTNKLLIYSGSTLQSGIPSRFSGSGSGTDFTLTISSLEPEDFAMYYCQQHNEYPWTFGGGTKLEIK
Question: Which Kd does the source give for B1 here?
Answer: The Kd was 3.12 nM.
